Biological target: African swine fever virus (ASFV) decapping enzyme g5R protein, recombinant wild type (residues 1 to 250) (African swine fever virus (ASFV)) (UniProt P32092)
Experiment: cross-linking

“African swine fever virus (ASFV) decapping enzyme g5R protein, recombinant wild type (residues 1 to 250) (from UniProt P32092 1-250)” showed a stoichiometry N of 2.

From publication PMC9131872
